Assays:
[1] = biological target: cynomolgus CD3 on T cells of cynomolgus PBMCs (mkT cells) (cynomolgus monkey); assay: FACS, serially diluted antibody on cynomolgus PBMC T cells (mkT cells)
[2] = biological target: human CD3 on Jurkat cells (CD3+, CD20- human T-cell line) (human) (UniProt P07766); assay: FACS, serially diluted antibody on Jurkat cells (CD3+, CD20-)
[3] = biological target: FcR on U937 cells; assay: cell-based or functional assay
[4] = biological target: His-tagged cynomolgus FcγRIIB (cynomolgus monkey); assay: SPR steady-state, His-captured FcγR, antibody injected, 25 C
[5] = biological target: His-tagged cynomolgus FcγRIIA (cynomolgus monkey); assay: as above
[6] = biological target: His-tagged human FcγRIIIB (human) (UniProt O75015); assay: as above
[7] = biological target: His-tagged human FcγRIIA (H131) (human) (UniProt P12318); assay: as above
[8] = biological target: His-tagged human FcγRIIIA (V176) (human) (UniProt P08637); assay: as above
[9] = biological target: His-tagged cynomolgus FcγRIIIA (cynomolgus monkey) (UniProt Q8SPW2); assay: as above
[10] = biological target: His-tagged human FcγRIIA (R131) (human) (UniProt P12318); assay: as above
[11] = biological target: His-tagged human FcγRIIIA (F176) (human) (UniProt P08637); assay: as above
[12] = biological target: His-tagged human FcγRI (human) (UniProt P12314); assay: SPR (Biacore T200), His-captured human FcγRI, antibody injected, 25 C
[13] = biological target: His-tagged human FcγRIIB (human) (UniProt P31994); assay: SPR steady-state, His-captured FcγR, antibody injected, 25 C
His-tagged human FcγRIIB (human), sequence (P31994 46-217 limits assumed): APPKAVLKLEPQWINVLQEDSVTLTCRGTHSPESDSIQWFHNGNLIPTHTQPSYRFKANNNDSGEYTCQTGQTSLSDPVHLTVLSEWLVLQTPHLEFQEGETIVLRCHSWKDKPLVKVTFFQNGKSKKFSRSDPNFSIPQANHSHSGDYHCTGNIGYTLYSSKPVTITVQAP

His-tagged human FcγRI (human), sequence (P12314 16-288 limits assumed): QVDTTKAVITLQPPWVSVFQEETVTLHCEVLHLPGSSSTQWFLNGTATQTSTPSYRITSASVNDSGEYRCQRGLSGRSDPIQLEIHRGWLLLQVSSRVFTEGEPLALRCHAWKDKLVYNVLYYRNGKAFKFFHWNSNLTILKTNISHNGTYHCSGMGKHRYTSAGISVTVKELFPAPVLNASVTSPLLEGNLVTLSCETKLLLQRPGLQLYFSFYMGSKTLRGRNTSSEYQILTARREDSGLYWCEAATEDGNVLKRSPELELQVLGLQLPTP
His-tagged human FcγRIIA (H131) (human), sequence (P12318 36-218 limits assumed): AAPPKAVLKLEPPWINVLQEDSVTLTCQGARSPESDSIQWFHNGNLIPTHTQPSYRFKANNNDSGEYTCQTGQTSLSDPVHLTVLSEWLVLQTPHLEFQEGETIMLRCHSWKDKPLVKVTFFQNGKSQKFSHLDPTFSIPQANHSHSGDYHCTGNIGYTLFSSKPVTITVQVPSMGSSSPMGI
His-tagged cynomolgus FcγRIIIA (cynomolgus monkey), sequence (Q8SPW2 17-208 limits assumed): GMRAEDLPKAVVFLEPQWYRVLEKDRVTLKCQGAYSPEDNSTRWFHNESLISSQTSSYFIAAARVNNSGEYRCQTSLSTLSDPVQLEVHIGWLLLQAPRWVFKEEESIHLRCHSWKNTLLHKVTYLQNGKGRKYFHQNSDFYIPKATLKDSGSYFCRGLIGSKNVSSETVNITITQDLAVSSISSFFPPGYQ
His-tagged human FcγRIIA (R131) (human), sequence (P12318 36-218 H167R limits assumed): as the sequence (P12318 36-218 limits assumed) above, with H132R counted along it
His-tagged human FcγRIIIA (F176) (human), sequence (P08637 17-208 limits assumed): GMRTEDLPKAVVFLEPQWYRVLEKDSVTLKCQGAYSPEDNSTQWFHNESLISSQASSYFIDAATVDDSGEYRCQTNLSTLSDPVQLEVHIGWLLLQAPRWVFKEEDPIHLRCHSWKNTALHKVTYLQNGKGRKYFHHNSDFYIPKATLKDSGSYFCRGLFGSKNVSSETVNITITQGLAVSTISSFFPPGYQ
His-tagged human FcγRIIIA (V176) (human), sequence (P08637 17-208 F176V limits assumed): as the sequence (P08637 17-208 limits assumed) above, with F160V counted along it
His-tagged human FcγRIIIB (human), sequence (O75015 17-200 limits assumed): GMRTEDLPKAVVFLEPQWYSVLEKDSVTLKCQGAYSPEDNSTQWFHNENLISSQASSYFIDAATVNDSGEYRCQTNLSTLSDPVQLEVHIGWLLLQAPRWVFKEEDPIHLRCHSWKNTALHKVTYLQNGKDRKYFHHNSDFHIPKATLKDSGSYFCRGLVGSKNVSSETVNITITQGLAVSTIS

| EC50 [1] | EC50 [2] | Kd [4] | Kd [5] | Kd [6] | Kd [7] | Kd [8] | Kd [9] | Kd [10] | Kd [11] | Kd [12] | T1/2 [12] | koff [12] | kon [12] | Kd [13] | Substance | U937 Cytotoxicity Human T-cells [M] (EC50, calcein release) [3] |
| --- | --- | --- | --- | --- | --- | --- | --- | --- | --- | --- | --- | --- | --- | --- | --- | --- |
| 0.0703 nM |  |  |  |  |  |  |  |  |  |  |  |  |  |  | Control Antibody 2: antibody SP34 reactive against the epsilon chain of the T3 complex on human T lymphocyte cells |  |
|  | 0.196 nM |  |  |  |  |  |  |  |  |  |  |  |  |  | Control Antibody 1: monoclonal antibody OKT-3 against human T-cell surface antigens | 3.04e-12 M |
|  |  | 42 nM | 42 nM | 23 nM | 11 nM | 15 nM | 6 nM | 20 nM | 13 nM | 4.3 nM | 15 min | 0.000748 s⁻¹ | 174000 M⁻¹ s⁻¹ |  | wt-IgG1 Isotype Control (antibody) |  |
|  |  | 96 nM | 193 nM |  | 120 nM |  | 58 nM | 100 nM | 260 nM | 13.9 nM | 5 min |  |  | 98 nM | wt-IgG4 CPPC Isotype Control (antibody) |  |

From US20200115464A1
